In one assay the target is T1, FLAG-CRAFΔN (193-648) (human, UniProt P04049 193-648).
T1 construct: Expressed in M7609 cells from a pCMV6-Entry vector; also called CRAF protein with a deletion at the N-terminal moiety; not shown: FLAG tag at the C-terminus (plasmid pCMV6-Myc-DDK-CRAFΔN)
Kind of assay: co-immunoprecipitation from M7609 cell lysate on anti-FLAG M2 magnetic beads, Western blot with anti-GSTP1. The procedure:
(§1) The transfected cells were used for coimmunoprecipitation. The cells were lysed by incubation in 0.5% NP-40 lysis buffer (0.5% NP-40, 20 mM HEPES pH 7.4, 150 mM NaCl, 1 mM MgCl₂, 1 mM EGTA, 10% glycerol, Complete, Mini (Roche Diagnostics) and PhosSTOP (Roche Diagnostics)) on ice for 30 min. Centrifugation was performed to give a supernatant as a cell lysate. The cell lysates obtained from the samples and containing the same amount of protein were each incubated with anti-FLAG M2 magnetic beads (Sigma-Aldrich) at 4° C. for 2 h to overnight, so that each FLAG-tagged protein was attached to the beads. The beads were washed four times with 0.5% NP-40 lysis buffer.
(§2) Each sample for western blotting was prepared from the beads obtained after the coimmunoprecipitation, and then subjected to SDS-PAGE for protein separation. The separated protein was transferred to a PVDF membrane. The membrane was incubated with a primary antibody solution and then washed. The primary antibody used was an anti-GSTP1 antibody (Medical & Biological Laboratories Co., Ltd.), an anti-FLAG antibody (F3165, Sigma-Aldrich), or an anti-GAPDH antibody (Abcam plc.). The membrane was then incubated with a secondary antibody (goat secondary antibody to rabbit or mouse IgG) solution and then washed. The signal on the membrane was visualized using ECL or ECL prime Western blotting detection system (GE Healthcare). […]
On the technique in general: A western blot detects proteins with antibodies after separation by electrophoresis.

The target of the next assay is T2, FLAG-BRAF (1-766) (Homo sapiens (Human), UniProt P15056 1-766).
T2 construct: Expressed in M7609 cells from plasmid pCV6-Myc-DDK-BRAF (OriGene Technologies); also called full-length BRAF protein; BRAF with the extension; not shown: FLAG tag (DDK tag) at the C-terminus
T2 sequence (P15056 whole entry): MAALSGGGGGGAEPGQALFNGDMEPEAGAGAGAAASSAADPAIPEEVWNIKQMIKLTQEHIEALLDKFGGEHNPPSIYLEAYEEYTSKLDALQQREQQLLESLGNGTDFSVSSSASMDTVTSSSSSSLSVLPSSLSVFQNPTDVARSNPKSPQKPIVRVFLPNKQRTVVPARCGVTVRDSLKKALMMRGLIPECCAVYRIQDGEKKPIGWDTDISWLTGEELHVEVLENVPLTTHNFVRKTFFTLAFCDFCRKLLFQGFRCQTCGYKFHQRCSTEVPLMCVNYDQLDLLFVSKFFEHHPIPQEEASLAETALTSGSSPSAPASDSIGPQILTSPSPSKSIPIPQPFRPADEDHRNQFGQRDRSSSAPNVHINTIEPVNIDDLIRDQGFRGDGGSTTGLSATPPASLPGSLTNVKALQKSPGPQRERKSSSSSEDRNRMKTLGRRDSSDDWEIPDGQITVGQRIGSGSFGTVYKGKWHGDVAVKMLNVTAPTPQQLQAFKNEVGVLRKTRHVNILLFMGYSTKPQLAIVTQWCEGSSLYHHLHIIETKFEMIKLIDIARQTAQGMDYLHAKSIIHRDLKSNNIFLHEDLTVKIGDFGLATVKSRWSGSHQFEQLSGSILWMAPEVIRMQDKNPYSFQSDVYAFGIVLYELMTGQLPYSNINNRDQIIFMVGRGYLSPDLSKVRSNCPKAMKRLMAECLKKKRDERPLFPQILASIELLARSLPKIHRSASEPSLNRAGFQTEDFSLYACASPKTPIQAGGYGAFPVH
Described as above. The procedure: as §1, §2

B1: GSTP1 (endogenous, in lysates of KRAS mutation-positive colon cancer cells) (enzyme)
chain: PPYTVVYFPVRGRCAALRMLLADQGQSWKEEVVTVETWQEGSLKASCLYGQLPKFQDGDLTLYQSNTILRHLGRTLGLYGKDQQEAALVDMVNDGVEDLRCKYISLIYTNYEAGKDDYVKALPGQLKPFETLLSQNQGGKTFIVGDQISFADYNLLDLLLIHEVLAPGCLDAFPLLSAYVGRLSARPKLKAFLASPEYVNLPINGNGKQ
notes: also called glutathione S-transferase pi; endogenous GSTP1
Turning to B1, the binding result in the assay with FLAG-CRAFΔN (193-648) and in the assay with FLAG-BRAF (1-766) was “no binding” throughout.

(Values after US20200370050A1 (published 2020).)
